Results from the supplement of paper PMC9170038.

Test system: MS2 coat protein
Test: apparent KD of MS2 coat protein; designed switch direction (-1 OFF switch, 1 ON switch): -1; higher = weaker reporter binding
Summary of the method: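 Designed RNA switches with common flanks were made on Illumina chips by stalled E. coli RNA polymerase. Titration with SNAP-549-labelled MS2 coat protein doubled from 0.7 or 1.5 nM up to 3 µM. Apparent KD is each design's median over clusters after curve-fitting normalised fluorescence.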

[1] = Eterna round: R95, input ligand: FMN 200 uM
[2] = Eterna round: R95, input ligand: microRNA oligo, concentration not stated
[3] = Eterna round: R95, input ligand: none
[4] = input ligand: microRNA oligo, concentration not stated

Row | Sequence | apparent KD of MS2 coat protein [1] | apparent KD of MS2 coat protein [2] | apparent KD of MS2 coat protein [3] | apparent KD of MS2 coat protein (input ligand: FMN 200 uM) | apparent KD of MS2 coat protein [4] | apparent KD of MS2 coat protein (input ligand: none)
1 | CAUACAGUAGUUAGGAUAUUGCAACGCACACGGAACGAGAAGGGACAUGAGGAUCACCCAUGUAGACUGUAAAG [EX-4 Malc #7] (puzzle: Brourd's mod of Exclusion 4) | 20.1 nM | 18.5 nM | 24.7 nM | – | – | –
2 | CAUACUAAAGUCAGGAUAUGCGGCCGAAUACGGGUGUAGAAGGGACAUGAGGAUCACCCAUGUAGAUAGUAAAG [EX-4 Malc #17] (puzzle: Brourd's mod of Exclusion 4) | 29.1 nM | 23.1 nM | 22.2 nM | – | – | –
3 | CAUACUCAAGUCAGGAUAUAGAGUCGGAUACGGGUCUAGAAGGGACAUGAGGAUCACCCAUGUAGAGAGUAAAG [EX-4 Malc #24] (puzzle: Brourd's mod of Exclusion 4) | 62.7 nM | 30.9 nM | 30.8 nM | – | – | –
4 | CAUACUCAAGUCAGGAUAUAGUCUCGGAUACGGAACUAGAAGGGACAUGAGGAUCACCCAUGUAGAGAGUAAAG [EX-4 Malc #27] (puzzle: Brourd's mod of Exclusion 4) | 63.2 nM | 37.8 nM | 52.2 nM | – | – | –
5 | CAUACUGAAGUUAGGAUAUUCGGCCGAAUACGGAUGGAGAAGGGACAUGAGGAUCACCCAUGUAGAUAGUAAAG [EX-4 Malc #14] (puzzle: Brourd's mod of Exclusion 4) | 26.1 nM | 21.7 nM | 27.6 nM | – | – | –
6 | CAUAGUUACUCAGGAUAUCUUACAUGAGGAUCACCCAUGUAAUAAAUGAGAAUUUCGAAUGUAUAAGAGAAGGGAGAAAUCUAC [Ostracism 58 - Jieux - Exclusion NG 2] (Eterna round: R96, puzzle: Exclusion NG 2) | – | – | – | 15.9 nM | 14 nM | 17.6 nM
7 | CAUGAUCUUCGGAUCAUGUACAUGAGGAUCACCCAUGUGACGAGUUGAUCCUCAAACAAGCUUUUUGCUCGUCUUAU [Sensor v3 - Turn-off variant 1 - 18] (puzzle: Sensor v3, turn-off variant 1) | 17 nM | 10.6 nM | 17.5 nM | – | – | –
8 | CAUGAUUGGCGAGGAUAUUGACCUAGUUGGCGACGAGAAGGCGCCUGUCACAUGAGGAUCACCCAUGUGAAUCUGGUGAAAGAG [Ex NG1 #90] (Eterna round: R96, puzzle: Exclusion NG 1) | – | – | – | 23.9 nM | 16.1 nM | 22.8 nM
9 | CAUGAUUGGGAAGGAUAUUGACCUAGUUAGUGCCGAGAAGGUCCCUUUCACAUGAGGAUCACCCAUGUGAGACUGGUGUUCGAG [Ex NG1 #98] (Eterna round: R96, puzzle: Exclusion NG 1) | – | – | – | – | 19.6 nM | –
10 | CAUGGAACGUAGGAUAUCUCGCAGCCCGGCCGCAGAGAAGGACGUACAUGAGGAUCACCCAUGUAUGAUCCAAA [Zareinon] (puzzle: Exclusion 6) | 32.2 nM | 19.8 nM | 26.2 nM | – | – | –
11 | CAUGUGUAAGGAUAUGACAAUGGUAUCUUCGGAUACCAUUGUCAGAAGGUACAUGAGGAUCACCCAUGUAGAUC [Ex4-3: 16] (puzzle: Exclusion 4) | – | 48.6 nM | – | – | – | –
12 | CAUUACUACAAGCUAAGGGACAUGAGGAUCACCCAUGUUCGUCUUAUUGAUCUAGGUACGCUGACGUACCUAGAUCU [JL-sv1-2.23 Brourd mod] (puzzle: Sensor v3, turn-off variant 1) | 15.8 nM | 20.1 nM | 14.6 nM | – | – | –
13 | CAUUACUACAAGCUAUGGGACAUGAGGAUCACCCAUGUUCGUCUUAUUGAUCUAGGUACGCUGACGUACCUAGAUCU [JL-sv1-2.22 Brourd mod] (puzzle: Sensor v3, turn-off variant 1) | 16.6 nM | 21.6 nM | 15.7 nM | – | – | –
14 | CAUUAGCGGGCAGGAUAUCCUAAUAAGCAGAAUGGAGAAGGGCCAAGGUCAACUUGAGGAUCACCCAAGUCAUAAAGUUGGCCC [Mutated MS2 EX1.29] (Eterna round: R96, puzzle: Exclusion NG 1) | – | – | – | 10.9 nM | 11.6 nM | 13.9 nM
15 | CAUUAUGUUGAGGAUAUGCACCAGCUCACUGACGCAGAAGGCGACACAUGAGGAUCACCCAUGUCAGUUCGCGA [salish99_ex6_r004_428] (Eterna round: R97, puzzle: Exclusion 6) | – | – | – | 16.1 nM | – | 14.6 nM
16 | CAUUAUGUUGAGGAUAUGCGCCGGAAAACUGACGCAGAAGGCGACACAUGAGGAUCACCCAUGUCAGUUUGCGA [salish99_ex6_r004_425] (Eterna round: R97, puzzle: Exclusion 6) | – | – | – | 70.1 nM | – | 28.3 nM
17 | CAUUAUGUUGAGGAUAUGCGCCGGCAAACUGACGCAGAAGGCGACACAUGAGGAUCACCCAUGUCAGUUCGCGA [salish99_ex6_r004_423] (Eterna round: R97, puzzle: Exclusion 6) | – | – | – | 13.3 nM | – | 14.9 nM
18 | CAUUAUUAUCGAGGAUAUCCUAUUGAAAUUCUGGGAGAAGGCGGACUCAACAUGAGGAUCACCCAUGUGGGACGGAUGCUAGGG [Ex NG1 #28] (Eterna round: R96, puzzle: Exclusion NG 1) | – | – | – | – | 17.5 nM | –
19 | CAUUAUUAUCGAGGAUAUCCUAUUGAAAUUCUGGGAGAAGGCGGACUCAACAUGAGGAUCACCCAUGUGGGACGGAUGCUGGGA [salish99_exng1_r04_604] (Eterna round: R96, puzzle: Exclusion NG 1) | – | – | – | 18 nM | 20.9 nM | 21 nM
20 | CAUUCAGAUGUCAGGAUAUCUGCGGGUAGGGCCGAAGAGAAGGGACAUGAGGAUCACCCAUGUACACUGCUAGA [BmEX4 B.28] (Eterna round: R97, puzzle: Brourd's mod of Exclusion 4) | – | – | – | 22.9 nM | – | 16 nM
21 | CCAAACAGAGGAUAUGCGAAUAAAUAAAACUUUUUUUUUUAACAUGAGGAUCACCCAUGUAGAAGGCUGAAACC [Ex2 #41] (Eterna round: R97, puzzle: Exclusion 2) | – | – | – | 29.3 nM | – | 27.6 nM
22 | CCAAAUCAUGUAGGAUAUGCGUGGCGAAGCUAUGCAGAAGGACAUGAGGAUCACCCAUGUGCUUCCGUCUGCGUACAGACGGUA [JL ENG1 1.15] (Eterna round: R96, puzzle: Exclusion NG 1) | – | – | – | 123 nM | 103 nM | 118 nM
23 | CCAAAUUCAGGAUAUACGAUGGUGAGUUCGUCCUCAAGGCCACAUGAGGAUCACCCAUGUAGAAGGGAGGUCGG [Eternabot (L1) Solution 77] (Eterna round: R97, puzzle: Exclusion 2) | – | – | – | 130 nM | – | 35.6 nM
24 | CCAACCAGAGGAUAUGCGAAUAAAUAAAACUUUUUUUUUUAACAUGAGGAUCACCCAUGUAGAAGGCUGCAACC [Ex2 #39] (Eterna round: R97, puzzle: Exclusion 2) | – | – | – | 32 nM | – | 34.8 nM
25 | CCAAGAUAAGGAUAUUGAAGGUUCGACAUGAGGAUCACCCAUGUUAUGUUGGAAAAGGGACAAGAAGGUAUGAAAA [salish99_ex5_r4_215] (Eterna round: R97, puzzle: Exclusion 5) | – | – | – | 27.6 nM | – | 34.3 nM
